# Assay results reported in the Human Domainome abundance scans (Beltran et al. 2025).
# ± gives the uncertainty stated by the source.
# B1: Nucleolar transcription factor 1, residues 408 to 469; numbered along this chain, P17480 (parent)
# chain: KRPVSAMFIFSEEKRRQLQEERPELSESELTRLLARMWNDLSEKKKAKYKAREAALKAQSER
# Variants of: B1
# Test: abundance fitness (aPCA) (normalised: wild type 0, dead -1); higher = more abundant; growth selection in yeast, the domain comes from the species named
# Details: Homo sapiens
row,Variant,abundance fitness
1,KRPVSAMFIFSEEKRRQLQEERPELSESELTTLLARMWNDLSEKKKAKYKAREAALKAQSER [R32T],-0.007 ± 0.092
2,KRPVSAMFIFSEEKRRQLQEERPELSESELTHLLARMWNDLSEKKKAKYKAREAALKAQSER [R32H],0.023 ± 0.083
3,KRPVSAMFIFSEEKRRQLQEERPELSESELTILLARMWNDLSEKKKAKYKAREAALKAQSER [R32I],-0.007 ± 0.13
4,KRPVSAMFIFSEEKRRQLQEERPELSESELTFLLARMWNDLSEKKKAKYKAREAALKAQSER [R32F],-0.188 ± 0.11
5,KRPVSAMFIFSEEKRRQLQEERPELSESELTELLARMWNDLSEKKKAKYKAREAALKAQSER [R32E],-0.07 ± 0.076
6,KRPVSAMFIFSEEKRRQLQEERPELSESELTWLLARMWNDLSEKKKAKYKAREAALKAQSER [R32W],-0.136 ± 0.054
7,KRPVSAMFIFSEEKRRQLQEERPELSESELTGLLARMWNDLSEKKKAKYKAREAALKAQSER [R32G],-0.085 ± 0.045
8,KRPVSAMFIFSEEKRRQLQEERPELSESELTYLLARMWNDLSEKKKAKYKAREAALKAQSER [R32Y],-0.157 ± 0.13
9,KRPVSAMFIFSEEKRRQLQEERPELSESGLTRLLARMWNDLSEKKKAKYKAREAALKAQSER [E29G],-0.2 ± 0.041
10,KRPVSAMFIFSEEKRRQLQEERPELSESQLTRLLARMWNDLSEKKKAKYKAREAALKAQSER [E29Q],-0.111 ± 0.066
11,KRPVSAMFIFSEEKRRQLQEERPELSESNLTRLLARMWNDLSEKKKAKYKAREAALKAQSER [E29N],-0.174 ± 0.11
12,KRPVSAMFIFSEEKRRQLQEERPELSESVLTRLLARMWNDLSEKKKAKYKAREAALKAQSER [E29V],-0.258 ± 0.045
13,KRPVSAMFIFSEEKRRQLQEERPELSESMLTRLLARMWNDLSEKKKAKYKAREAALKAQSER [E29M],-0.172 ± 0.064
14,KRPVSAMFIFSEEKRRQLQEERPELSESLLTRLLARMWNDLSEKKKAKYKAREAALKAQSER [E29L],-0.304 ± 0.047
15,KRPVSAMFIFSEEKRRQLQEERPELSESPLTRLLARMWNDLSEKKKAKYKAREAALKAQSER [E29P],-1.14 ± 0.083
16,KRPVSAMFIFSEEKRRQLQEERPELSESRLTRLLARMWNDLSEKKKAKYKAREAALKAQSER [E29R],-0.496 ± 0.047
17,KRPVSAMFIFSEEKRRQLQEERPELSESILTRLLARMWNDLSEKKKAKYKAREAALKAQSER [E29I],-0.327 ± 0.14
18,KRPVSAMFIFSEEKRRQLQEERPELSESWLTRLLARMWNDLSEKKKAKYKAREAALKAQSER [E29W],-0.699 ± 0.069
19,KRPVSAMFIFSEEKRRQLQEERPELSESYLTRLLARMWNDLSEKKKAKYKAREAALKAQSER [E29Y],-0.433 ± 0.096
20,KRPVSAMFIFSEEKRRQLQEERPELSESFLTRLLARMWNDLSEKKKAKYKAREAALKAQSER [E29F],-0.603 ± 0.083
21,KRPVSAMFIFSEEKRRQLQEERPELSESSLTRLLARMWNDLSEKKKAKYKAREAALKAQSER [E29S],-0.17 ± 0.067
22,KRPVSAMFIFSEEKRRQLQEERPELSESHLTRLLARMWNDLSEKKKAKYKAREAALKAQSER [E29H],-0.223 ± 0.12

row,Variant,abundance fitness
1,KRPVSAMFIFSEEKRRQLQEERPELSESTLTRLLARMWNDLSEKKKAKYKAREAALKAQSER [E29T],-0.157 ± 0.089
2,KRPVSAMFIFSEEKRRQLQEERPELSESKLTRLLARMWNDLSEKKKAKYKAREAALKAQSER [E29K],-0.207 ± 0.079
3,KRPVSAMFIFSEEKRRQLQEERPELSESCLTRLLARMWNDLSEKKKAKYKAREAALKAQSER [E29C],-0.223 ± 0.14
4,KRPVSAMFIFSEEKRRQLQEERPELSESELRRLLARMWNDLSEKKKAKYKAREAALKAQSER [T31R],-0.07 ± 0.042
5,KRPVSAMFIFSEEKRRQLQEERPELSESELERLLARMWNDLSEKKKAKYKAREAALKAQSER [T31E],-0.051 ± 0.08
6,KRPVSAMFIFSEEKRRQLQEERPELSESELCRLLARMWNDLSEKKKAKYKAREAALKAQSER [T31C],-0.143 ± 0.08
7,KRPVSAMFIFSEEKRRQLQEERPELSESELFRLLARMWNDLSEKKKAKYKAREAALKAQSER [T31F],-0.308 ± 0.12
8,KRPVSAMFIFSEEKRRQLQEERPELSESELDRLLARMWNDLSEKKKAKYKAREAALKAQSER [T31D],0.005 ± 0.092
9,KRPVSAMFIFSEEKRRQLQEERPELSESELPRLLARMWNDLSEKKKAKYKAREAALKAQSER [T31P],-0.423 ± 0.079
10,KRPVSAMFIFSEEKRRQLQEERPELSESELSRLLARMWNDLSEKKKAKYKAREAALKAQSER [T31S],-0.02 ± 0.036
11,KRPVSAMFIFSEEKRRQLQEERPELSESELARLLARMWNDLSEKKKAKYKAREAALKAQSER [T31A],-0.043 ± 0.065
12,KRPVSAMFIFSEEKRRQLQEERPELSESELLRLLARMWNDLSEKKKAKYKAREAALKAQSER [T31L],-0.107 ± 0.049
13,KRPVSAMFIFSEEKRRQLQEERPELSESELMRLLARMWNDLSEKKKAKYKAREAALKAQSER [T31M],-0.133 ± 0.058
14,KRPVSAMFIFSEEKRRQLQEERPELSESELKRLLARMWNDLSEKKKAKYKAREAALKAQSER [T31K],-0.086 ± 0.086
15,KRPVSAMFIFSEEKRRQLQEERPELSESELVRLLARMWNDLSEKKKAKYKAREAALKAQSER [T31V],-0.131 ± 0.061
16,KRPVSAMFIFSEEKRRQLQEERPELSESELIRLLARMWNDLSEKKKAKYKAREAALKAQSER [T31I],-0.25 ± 0.092
17,KRPVSAMFIFSEEKRRQLQEERPELSESELQRLLARMWNDLSEKKKAKYKAREAALKAQSER [T31Q],-0.045 ± 0.081
18,KRPVSAMFIFSEEKRRQLQEERPELSESELYRLLARMWNDLSEKKKAKYKAREAALKAQSER [T31Y],-0.428 ± 0.21
19,KRPVSAMFIFSEEKRRQLQEERPELSESELHRLLARMWNDLSEKKKAKYKAREAALKAQSER [T31H],-0.074 ± 0.091
20,KRPVSAMFIFSEEKRRQLQEERPELSESELGRLLARMWNDLSEKKKAKYKAREAALKAQSER [T31G],-0.116 ± 0.047
21,KRPVSAMFIFSEEKRRQLQEERPELSESELWRLLARMWNDLSEKKKAKYKAREAALKAQSER [T31W],-0.221 ± 0.056
